The record followed here is PMC6980832, “Crystal structures of Triosephosphate Isomerases from Taenia solium and Schistosoma mansoni provide insights for vaccine rationale and drug design against helminth parasites” (PLoS Neglected Tropical Diseases, 2020).

Substrate in data set [1]: O=CC(O)COP(=O)(O)O
Put plainly: purified protein. Particulars: 0.1 M TEA-HCl pH 7.4, 10 mM EDTA, 0.2 mM NADH, 21 °C, G3P 0 to 5 mM, G3P to DHAP direction. Type of data set: biochemical, Taenia solium.

Substrate in data set [2]: O=CC(O)COP(=O)(O)O
Put plainly: purified protein. Type of data set: biochemical, Schistosoma mansoni. Particulars: 0.1 M TEA-HCl pH 7.4, 10 mM EDTA, 0.2 mM NADH, 21 °C, G3P 0 to 5 mM, G3P to DHAP direction.

B1: TsTPI (Taenia solium) (protein)
chain: MTRKLFVGGNWKMNGSYSHINTFFDTLQKADTDPNADIVIGVPACYLKYAQDKAPKGIKIAAENCYKVGSGAFTGEISTEMIKDCGCEWVILGHSERRHIFGESNELIGEKVKHALDSGLNVIPCIGELLSEREAGKTNDVCFAQMDAIAKNVPSKEAWDKVVIAYEPVWAIGTGKTATPAQAQEVHKVVRDWIRKHVDAGIADKVRILYGGSVTASNAKDLGTQPDVDGFLVGGASLKPDFITIINARR
notes: full length, codon-optimised synthetic gene, E. coli tpi-null strain, modified pET19; extra Gly-Pro-His before Met1; homodimer
By Km is commonly meant the substrate concentration at which the rate is half of its maximum. Broadly, the kcat is the maximal rate divided by the concentration of active sites. As usually defined, the kcat/Km is the second-order rate constant that governs catalysis at low substrate concentration. Regarding B1, in the data set “purified protein [1]”, the Km is 310 ± 30 µM, the turnover number (kcat) was found to be 993 ± 44 s⁻¹ and the kcat/Km came to 3.15e+06 M⁻¹ s⁻¹.

B2: SmTPI (Schistosoma mansoni) (protein)
chain: MSGSRKFFVGGNWKMNGSRDDNDKLLKLLSEAHFDDNTEVLIAPPSVFLHEIRKSLKKEIHVAAQNCYKVSKGAFTGEISPAMIRDIGCDWVILGHSERRNIFGESDELIAEKVQHALAEGLSVIACIGETLSERESNKTEEVCVRQLKAIANKIKSADEWKRVVVAYEPVWAIGTGKVATPQQAQEVHNFLRKWFKTNAPNGVDEKIRIIYGGSVTAANCKELAQQHDVDGFLVGGASLKPEFTEICKARQR
notes: full length, codon-optimised synthetic gene, E. coli tpi-null strain, modified pET19; extra Gly-Pro-His before Met1; homodimer about 50 kDa
On to B2, for which, in the data set “purified protein [2]”, the Km stood at 480 ± 70 µM, the kcat was determined as 2870 ± 138 s⁻¹ and the catalytic efficiency (kcat/Km) was found to be 5.8e+06 M⁻¹ s⁻¹.
